Data from US20170058021A1 (SHANGHAI PULMONARY HOSPITAL, published 2017).

Key:
[1] = target: T1, human pulmonary surfactant protein A (hSP-A) (human, UniProt Q8IWL2 21-248); assay: ELISA with purified nanobody
T1 construct: Native material from ground human lung tissue (supernatant of the lysate, called 'purified hSP-A'); It may hold both SP-A1 and SP-A2 gene products; also called human lung SP-A

[2] = target: T1, human pulmonary surfactant protein A …; assay: indirect phage ELISA, plate coated with hSP-A, OD 450 nm

T1 sequence (Q8IWL2 21-248 limits assumed): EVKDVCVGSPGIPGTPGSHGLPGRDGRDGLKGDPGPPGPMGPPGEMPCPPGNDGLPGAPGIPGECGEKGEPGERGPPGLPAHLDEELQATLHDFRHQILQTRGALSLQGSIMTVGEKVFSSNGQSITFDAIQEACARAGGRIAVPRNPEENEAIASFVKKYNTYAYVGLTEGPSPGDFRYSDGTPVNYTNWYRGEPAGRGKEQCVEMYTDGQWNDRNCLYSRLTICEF

B1: human lung tissue nanobody Nb15 (VHH)
VHH: MQAQLAGQLQLVESGGGLVQPGGSLSVSCAVRGRDLDYYVIGWFRQAPGKEREGVSCINNSDDTTYYSDSVKGRFTISRDHAKNTVYLQMNNLKPEDTALYYCAADFDRLDFTVKAMCVMKFFYYWGQGTQVTVSSEPKTPKPQGPRGLAAAGAPVPYPDLEPRAA
OD450 relative to negative control [1]: 2 times the negative control
affinity value relative to negative control [2]: 3 times the negative control

B2: human lung tissue nanobody Nb17 (VHH)
VHH: MQAQLAVQLQLVESGGGLVQPGGSLRLACAASGFNLDDYADIGWFRQAPGKERERVLCITISDGTTYYEDSGKGRFSISTDIAKNTVFLQMDSLKAEDTAVYYCAGDPAPFCLYNTYVPRTWGQGTQVTVSSAHHSEDPGPRGLAAAGAPVPYPDPLEPRAA
notes: also called No. 17
OD450 relative to negative control [1]: 2 times the negative control
affinity value relative to negative control [2]: 3 times the negative control

B3: human lung tissue nanobody Nb43 (VHH)
VHH: MQAQLAVQLQLVESGGGLVQSGGSLRLSCAASGFTFNDYRMSWVRQAPGKGLEWVSDINSGGSSTYYADSVKGRFTVSRDNAKNTLYLQMNSLKPEDTAIYYCVALLGRGCSGLVQGAFGPWGQGTQVTVSSAHHSEDPGPRGLAAAGAPVPYPDPLEPRAA
OD450 relative to negative control [1]: 2 times the negative control
affinity value relative to negative control [2]: 3 times the negative control

B4: human lung tissue nanobody Nb11 (VHH)
VHH: MQAQLAGQLQLVESGGGLVQPGGSLRLSCTASKFHLDSYAVAWFRQTPGKEREAVSFINTSDDVTYFADSVKGRFTISRDNSKNTVYLQMNVLKPEDTSIYVCAAVRSPGPTGPSMQPMWVPDLYDYWGQGTQVTVSSAHHSEDPGPRGLAAAGAPVPYPDPLEPRAA
OD450 relative to negative control [1]: 2 times the negative control
affinity value relative to negative control [2]: 3 times the negative control
